Data taken from US20180371086A1.

Target: human CD3, on primary human T cells (human) (UniProt P07766)
Test: cell-based or functional assay

Chain of human CD3, on primary human T cells (human) (P07766 23-207 limits assumed): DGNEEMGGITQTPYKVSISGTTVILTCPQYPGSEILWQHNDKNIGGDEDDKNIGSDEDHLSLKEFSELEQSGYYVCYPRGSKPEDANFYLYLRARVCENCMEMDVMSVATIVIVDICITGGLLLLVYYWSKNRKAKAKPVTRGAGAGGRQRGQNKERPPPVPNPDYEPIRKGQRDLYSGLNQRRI

PGT-121.60 (antibody) gave a CD25 EC50; CD4 T cells; donor D1597; 7552-infected CEM cells of over 100 µg/mL, a CD25 EC50; CD4 T cells; donor D1597; THRO-infected CEM cells of over 100 µg/mL and a CD25 EC50; CD4 T cells; donor D1597; uninfected CEM cells of over 100 µg/mL. The CD25 EC50; CD4 T cells; donor D2256; 7552-infected CEM cells was over 100 µg/mL, the CD25 EC50; CD4 T cells; donor D2256; THRO-infected CEM cells was over 100 µg/mL and the CD25 EC50; CD4 T cells; donor D2256; uninfected CEM cells was over 100 µg/mL. It also gave a CD25 EC50; CD4 T cells; donor D4246; 7552-infected CEM cells of over 100 µg/mL, a CD25 EC50; CD4 T cells; donor D4246; THRO-infected CEM cells of over 100 µg/mL and a CD25 EC50; CD4 T cells; donor D4246; uninfected CEM cells of over 100 µg/mL. The CD25 EC50; CD4 T cells; donor D4279; 7552-infected CEM cells was over 100 µg/mL, the CD25 EC50; CD4 T cells; donor D4279; THRO-infected CEM cells was over 100 µg/mL and the CD25 EC50; CD4 T cells; donor D4279; uninfected CEM cells was over 100 µg/mL. For the same substance, the CD25 EC50; CD8 T cells; donor D1597; 7552-infected CEM cells was over 100 µg/mL, the CD25 EC50; CD8 T cells; donor D1597; THRO-infected CEM cells was over 100 µg/mL and the CD25 EC50; CD8 T cells; donor D1597; uninfected CEM cells was over 100 µg/mL. The CD25 EC50; CD8 T cells; donor D2256; 7552-infected CEM cells was over 100 µg/mL, the CD25 EC50; CD8 T cells; donor D2256; THRO-infected CEM cells was over 100 µg/mL and the CD25 EC50; CD8 T cells; donor D2256; uninfected CEM cells was over 100 µg/mL. It also gave a CD25 EC50; CD8 T cells; donor D4246; 7552-infected CEM cells of over 100 µg/mL, a CD25 EC50; CD8 T cells; donor D4246; THRO-infected CEM cells of over 100 µg/mL and a CD25 EC50; CD8 T cells; donor D4246; uninfected CEM cells of over 100 µg/mL. It also gave a CD25 EC50; CD8 T cells; donor D4279; 7552-infected CEM cells of over 100 µg/mL, a CD25 EC50; CD8 T cells; donor D4279; THRO-infected CEM cells of over 100 µg/mL and a CD25 EC50; CD8 T cells; donor D4279; uninfected CEM cells of over 100 µg/mL. It also gave a CD25 Δ Emax; CD4 T cells; donor D1597; 7552-infected CEM cells of 0%, a CD25 Δ Emax; CD4 T cells; donor D1597; THRO-infected CEM cells of -2% and a CD25 Δ Emax; CD4 T cells; donor D1597; uninfected CEM cells of 3%. For the same substance, the CD25 Δ Emax; CD4 T cells; donor D2256; 7552-infected CEM cells was 2%, the CD25 Δ Emax; CD4 T cells; donor D2256; THRO-infected CEM cells was -1% and the CD25 Δ Emax; CD4 T cells; donor D2256; uninfected CEM cells was -1%. It also gave a CD25 Δ Emax; CD4 T cells; donor D4246; 7552-infected CEM cells of -2%, a CD25 Δ Emax; CD4 T cells; donor D4246; THRO-infected CEM cells of -2% and a CD25 Δ Emax; CD4 T cells; donor D4246; uninfected CEM cells of 0%. For the same substance, the CD25 Δ Emax; CD4 T cells; donor D4279; 7552-infected CEM cells was -1%, the CD25 Δ Emax; CD4 T cells; donor D4279; THRO-infected CEM cells was -2% and the CD25 Δ Emax; CD4 T cells; donor D4279; uninfected CEM cells was 0%. It also gave a CD25 Δ Emax; CD8 T cells; donor D1597; 7552-infected CEM cells of -1%, a CD25 Δ Emax; CD8 T cells; donor D1597; THRO-infected CEM cells of 0% and a CD25 Δ Emax; CD8 T cells; donor D1597; uninfected CEM cells of 0%. The CD25 Δ Emax; CD8 T cells; donor D2256; 7552-infected CEM cells was 0%, the CD25 Δ Emax; CD8 T cells; donor D2256; THRO-infected CEM cells was -1% and the CD25 Δ Emax; CD8 T cells; donor D2256; uninfected CEM cells was 0%. It also gave a CD25 Δ Emax; CD8 T cells; donor D4246; 7552-infected CEM cells of 1%, a CD25 Δ Emax; CD8 T cells; donor D4246; THRO-infected CEM cells of 0% and a CD25 Δ Emax; CD8 T cells; donor D4246; uninfected CEM cells of 0%. It also gave a CD25 Δ Emax; CD8 T cells; donor D4279; 7552-infected CEM cells of 0%, a CD25 Δ Emax; CD8 T cells; donor D4279; THRO-infected CEM cells of 1% and a CD25 Δ Emax; CD8 T cells; donor D4279; uninfected CEM cells of 0%. It also gave a CD69 EC50; CD4 T cells; donor D1597; 7552-infected CEM cells of over 100 µg/mL, a CD69 EC50; CD4 T cells; donor D1597; THRO-infected CEM cells of over 100 µg/mL and a CD69 EC50; CD4 T cells; donor D1597; uninfected CEM cells of over 100 µg/mL. For the same substance, the CD69 EC50; CD4 T cells; donor D2256; 7552-infected CEM cells was over 100 µg/mL, the CD69 EC50; CD4 T cells; donor D2256; THRO-infected CEM cells was over 100 µg/mL and the CD69 EC50; CD4 T cells; donor D2256; uninfected CEM cells was over 100 µg/mL. The CD69 EC50; CD4 T cells; donor D4246; 7552-infected CEM cells was over 100 µg/mL, the CD69 EC50; CD4 T cells; donor D4246; THRO-infected CEM cells was over 100 µg/mL and the CD69 EC50; CD4 T cells; donor D4246; uninfected CEM cells was over 100 µg/mL. The CD69 EC50; CD4 T cells; donor D4279; 7552-infected CEM cells was over 100 µg/mL, the CD69 EC50; CD4 T cells; donor D4279; THRO-infected CEM cells was over 100 µg/mL and the CD69 EC50; CD4 T cells; donor D4279; uninfected CEM cells was over 100 µg/mL. It also gave a CD69 EC50; CD8 T cells; donor D1597; 7552-infected CEM cells of over 100 µg/mL, a CD69 EC50; CD8 T cells; donor D1597; THRO-infected CEM cells of over 100 µg/mL and a CD69 EC50; CD8 T cells; donor D1597; uninfected CEM cells of over 100 µg/mL. It also gave a CD69 EC50; CD8 T cells; donor D2256; 7552-infected CEM cells of over 100 µg/mL, a CD69 EC50; CD8 T cells; donor D2256; THRO-infected CEM cells of over 100 µg/mL and a CD69 EC50; CD8 T cells; donor D2256; uninfected CEM cells of over 100 µg/mL. It also gave a CD69 EC50; CD8 T cells; donor D4246; 7552-infected CEM cells of over 100 µg/mL, a CD69 EC50; CD8 T cells; donor D4246; THRO-infected CEM cells of over 100 µg/mL and a CD69 EC50; CD8 T cells; donor D4246; uninfected CEM cells of over 100 µg/mL. For the same substance, the CD69 EC50; CD8 T cells; donor D4279; 7552-infected CEM cells was over 100 µg/mL, the CD69 EC50; CD8 T cells; donor D4279; THRO-infected CEM cells was over 100 µg/mL and the CD69 EC50; CD8 T cells; donor D4279; uninfected CEM cells was over 100 µg/mL. The CD69 Δ Emax; CD4 T cells; donor D1597; 7552-infected CEM cells was 0%, the CD69 Δ Emax; CD4 T cells; donor D1597; THRO-infected CEM cells was 0% and the CD69 Δ Emax; CD4 T cells; donor D1597; uninfected CEM cells was 1%. It also gave a CD69 Δ Emax; CD4 T cells; donor D2256; 7552-infected CEM cells of 0%, a CD69 Δ Emax; CD4 T cells; donor D2256; THRO-infected CEM cells of 0% and a CD69 Δ Emax; CD4 T cells; donor D2256; uninfected CEM cells of 0%. It also gave a CD69 Δ Emax; CD4 T cells; donor D4246; 7552-infected CEM cells of 3%, a CD69 Δ Emax; CD4 T cells; donor D4246; THRO-infected CEM cells of 1% and a CD69 Δ Emax; CD4 T cells; donor D4246; uninfected CEM cells of -1%. It also gave a CD69 Δ Emax; CD4 T cells; donor D4279; 7552-infected CEM cells of 3%, a CD69 Δ Emax; CD4 T cells; donor D4279; THRO-infected CEM cells of 0% and a CD69 Δ Emax; CD4 T cells; donor D4279; uninfected CEM cells of 0%. For the same substance, the CD69 Δ Emax; CD8 T cells; donor D1597; 7552-infected CEM cells was 0%, the CD69 Δ Emax; CD8 T cells; donor D1597; THRO-infected CEM cells was 0% and the CD69 Δ Emax; CD8 T cells; donor D1597; uninfected CEM cells was 0%. For the same substance, the CD69 Δ Emax; CD8 T cells; donor D2256; 7552-infected CEM cells was 0%, the CD69 Δ Emax; CD8 T cells; donor D2256; THRO-infected CEM cells was 0% and the CD69 Δ Emax; CD8 T cells; donor D2256; uninfected CEM cells was 0%. For the same substance, the CD69 Δ Emax; CD8 T cells; donor D4246; 7552-infected CEM cells was 0%, the CD69 Δ Emax; CD8 T cells; donor D4246; THRO-infected CEM cells was 0% and the CD69 Δ Emax; CD8 T cells; donor D4246; uninfected CEM cells was 0%. The CD69 Δ Emax; CD8 T cells; donor D4279; 7552-infected CEM cells was -4%, the CD69 Δ Emax; CD8 T cells; donor D4279; THRO-infected CEM cells was 0% and the CD69 Δ Emax; CD8 T cells; donor D4279; uninfected CEM cells was 0%.
